B1: F-box protein MET30 (Saccharomyces cerevisiae), P39014 (parent)
chain: MRRERQRMMSFEDKDKDDLDNSNSNNSSEMTDTAMMPPLKRLLITGSSDDLAQGSSGKKKMTMATRSPSSSPDLATNDSGTRVQPLPEYNFTKFCYRHNPDIQFSPTHTACYKQDLKRTQEINANIAKLPLQEQSDIHHIISKYSNSNDKIRKLILDGILSTSCFPQLSYISSLVTHMIKIDFISILPQELSLKILSYLDCQSLCNATRVCRKWQKLADDDRVWYHMCEQHIDRKCPNCGWGLPLLHMKRARIQQNSTGSSSNADIQTQTTRPWKVIYRERFKVESNWRKGHCRIQEFKGHMDGVLTLQFNYRLLFTGSYDSTIGIWDLFTGKLIRRLSGHSDGVKTLYFDDRKLITGSLDKTIRVWNYITGECISTYRGHSDSVLSVDSYQKVIVSGSADKTVKVWHVESRTCYTLRGHTEWVNCVKLHPKSFSCFSCSDDTTIRMWDIRTNSCLKVFRGHVGQVQKIIPLTIKDVENLATDNTSDGSSPQDDPTMTDGADESDTPSNEQETVLDENIPYPTHLLSCGLDNTIKLWDVKTGKCIRTQFGHVEGVWDIAADNFRIISGSHDGSIKVWDLQSGKCMHTFNGRRLQRETQHTQTQSLGDKVAPIACVCIGDSECFSGDEFGCVKMYKFDLND

The variants in the first test derive from B1. Particulars: with skp1_yeast SKP1, P52286.
Sequence of skp1_yeast SKP1, P52286 (P52286 whole entry): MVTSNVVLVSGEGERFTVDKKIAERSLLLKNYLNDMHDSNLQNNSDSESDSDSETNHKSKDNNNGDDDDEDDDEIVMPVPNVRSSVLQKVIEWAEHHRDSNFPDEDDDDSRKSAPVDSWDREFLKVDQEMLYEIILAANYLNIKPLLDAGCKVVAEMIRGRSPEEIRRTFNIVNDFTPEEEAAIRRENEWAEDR
Consider S169P, for which the “effect of a mutation on the interaction” value was “disrupting interaction strength”.
The same measure, in the same setting: the value for C211Y was “disrupting interaction strength”; that for S163N was “disrupting interaction strength”.
On the same count and under the same terms, the same measure for P188L: “disrupting interaction strength”; for P188S: “disrupting interaction strength”.
Still for that read-out and setting: the same measure for Q167R: “disrupting interaction strength”.

The variants in the next test derive from B1. Particulars: with skp1_yeast SKP1, P52286. This is another data set of the same source.
Turning to L187D;E190A, the “effect of a mutation on the interaction” value is reported as “decreasing interaction”.

These data come from IntAct's records for PubMed 14660673.
